Test results: the RNAGym collection of RNA variant scans (doi:10.7554/elife.80360)

B1: HDV Ribozyme (parent)
chain: GGCCGGCAUGGUCCCAGCCUCCUCGCUGGCGCCGGCUGGGCAACAUUCCGAGGGGACCGUCCCCUCGGUAAUGGCGAAUGGGACCCA

Variants of: B1
Assay: self-cleavage, relative activity (ratio to wild type); higher = more cleavage; co-transcriptional
For C3U A51C, the self-cleavage was 0.831.
Work on C3U A51U yielded a self-cleavage of 0.992.
With C3U A56U the self-cleavage was 0.861.
For C3U A70G, the self-cleavage was 0.973.
C3U A70U gave a self-cleavage of 0.678.
Work on C3U A71G yielded a self-cleavage of 0.89.
Work on C3U A78G yielded a self-cleavage of 0.446.
With C3U A78U the self-cleavage was 0.117.
Variant C3U A87C has a self-cleavage of 0.759.
For C3U C4A, the self-cleavage was 0.0817.
For C3U C7U, the self-cleavage was 0.529.
C3U C13G showed a self-cleavage of 0.179.
C3U C13U showed a self-cleavage of 0.509.
C3U C14G gave a self-cleavage of 0.739.
C3U C14U gave a self-cleavage of 0.758.
Variant C3U C15G has a self-cleavage of 0.6.
Variant C3U C18G has a self-cleavage of 0.0779.
Variant C3U C22U has a self-cleavage of 0.525.
For C3U C24A, the self-cleavage was 0.328.
In the case of C3U C26A, the self-cleavage is reported as 0.923.
Work on C3U C30A yielded a self-cleavage of 0.223.
For C3U C30G, the self-cleavage was 0.
For C3U C30U, the self-cleavage was 0.345.
For C3U C58U, the self-cleavage was 0.696.
For C3U C61G, the self-cleavage was 0.816.
C3U C62G gave a self-cleavage of 0.415.
For C3U C63G, the self-cleavage was 0.572.
C3U C64A showed a self-cleavage of 0.518.
Variant C3U C66A has a self-cleavage of 0.69.
Work on C3U C66G yielded a self-cleavage of 0.758.
In the case of C3U C86A, the self-cleavage is reported as 0.923.
Work on C3U C86U yielded a self-cleavage of 0.718.
With C3U G5C the self-cleavage was 0.0123.
C3U G5U gave a self-cleavage of 0.107.
C3U G6A gave a self-cleavage of 0.245.
In the case of C3U G6U, the self-cleavage is reported as 0.0934.
With C3U G11U the self-cleavage was 0.138.
In the case of C3U G17C, the self-cleavage is reported as 0.0297.
Work on C3U G17U yielded a self-cleavage of 0.193.
C3U G25C showed a self-cleavage of 0.113.
Work on C3U G28U yielded a self-cleavage of 0.0707.
Work on C3U G29C yielded a self-cleavage of 0.0601.
C3U G31U gave a self-cleavage of 0.173.
For C3U G35C, the self-cleavage was 0.49.
With C3U G39U the self-cleavage was 0.385.
For C3U G40C, the self-cleavage was 0.26.
With C3U G50C the self-cleavage was 0.686.
C3U G53A gave a self-cleavage of 1.
In the case of C3U G54U, the self-cleavage is reported as 0.732.
For C3U G55C, the self-cleavage was 0.867.
Work on C3U G55U yielded a self-cleavage of 0.805.
C3U G73A gave a self-cleavage of 0.366.
C3U G73U gave a self-cleavage of 0.257.
C3U G74A gave a self-cleavage of 0.245.
For C3U G76C, the self-cleavage was 0.708.
C3U G82A showed a self-cleavage of 0.283.
C3U U20C showed a self-cleavage of 0.113.
C3U U37C gave a self-cleavage of 1.08.
For C3U U47A, the self-cleavage was 0.969.
With C3U U47C the self-cleavage was 0.564.
Work on C3U U69C yielded a self-cleavage of 0.616.
Variant C3U U79A has a self-cleavage of 0.591.
C4A A8G gave a self-cleavage of 0.192.
C4A A43G gave a self-cleavage of 0.158.
For C4A A43U, the self-cleavage was 0.0707.
With C4A A45C the self-cleavage was 0.0519.
With C4A A45G the self-cleavage was 0.138.
C4A A51G showed a self-cleavage of 0.502.
Variant C4A A51U has a self-cleavage of 0.145.
In the case of C4A A71G, the self-cleavage is reported as 0.151.
Variant C4A A71U has a self-cleavage of 0.259.
C4A A77G gave a self-cleavage of 0.0369.
Variant C4A A77U has a self-cleavage of 0.
In the case of C4A A78C, the self-cleavage is reported as 0.0308.
With C4A A87C the self-cleavage was 0.21.
Work on C4A A87G yielded a self-cleavage of 0.233.
C4A A87U showed a self-cleavage of 0.39.
With C4A C13A the self-cleavage was 0.0282.
C4A C18U showed a self-cleavage of 0.119.
Work on C4A C19U yielded a self-cleavage of 0.0203.
Variant C4A C21G has a self-cleavage of 0.
Work on C4A C22G yielded a self-cleavage of 0.102.
For C4A C22U, the self-cleavage was 0.148.
C4A C24G showed a self-cleavage of 0.0573.
Variant C4A C32A has a self-cleavage of 0.0332.
Work on C4A C33G yielded a self-cleavage of 0.
In the case of C4A C36U, the self-cleavage is reported as 0.
C4A C41A gave a self-cleavage of 0.117.
C4A C48A gave a self-cleavage of 0.225.
In the case of C4A C48U, the self-cleavage is reported as 0.151.
For C4A C49G, the self-cleavage was 0.302.
In the case of C4A C57G, the self-cleavage is reported as 0.277.
Variant C4A C58A has a self-cleavage of 0.348.
Work on C4A C63G yielded a self-cleavage of 0.0755.
C4A C66G showed a self-cleavage of 0.289.
With C4A C75A the self-cleavage was 0.157.
Work on C4A C75U yielded a self-cleavage of 0.102.
Work on C4A C85G yielded a self-cleavage of 0.393.
C4A C86A gave a self-cleavage of 0.185.
C4A G6A gave a self-cleavage of 0.0573.
Work on C4A G6U yielded a self-cleavage of 0.0791.
For C4A G10A, the self-cleavage was 0.0554.
Work on C4A G10C yielded a self-cleavage of 0.141.
For C4A G11A, the self-cleavage was 0.0183.
Work on C4A G11C yielded a self-cleavage of 0.0604.
C4A G25U gave a self-cleavage of 0.0252.
Work on C4A G29C yielded a self-cleavage of 0.0369.
With C4A G31A the self-cleavage was 0.0415.
C4A G34U showed a self-cleavage of 0.831.
With C4A G38U the self-cleavage was 0.0449.
Work on C4A G39U yielded a self-cleavage of 0.14.
For C4A G40C, the self-cleavage was 0.0511.
Work on C4A G52C yielded a self-cleavage of 0.406.
Work on C4A G52U yielded a self-cleavage of 0.213.
With C4A G59U the self-cleavage was 0.415.
In the case of C4A G67A, the self-cleavage is reported as 0.149.
In the case of C4A G67C, the self-cleavage is reported as 0.348.
Work on C4A G74A yielded a self-cleavage of 0.
Work on C4A G80A yielded a self-cleavage of 0.0519.
Work on C4A G80C yielded a self-cleavage of 0.
Variant C4A G80U has a self-cleavage of 0.048.
With C4A G81A the self-cleavage was 0.0468.
C4A U9A showed a self-cleavage of 0.323.
C4A U9G showed a self-cleavage of 0.383.
C4A U20A showed a self-cleavage of 0.0386.
Variant C4A U20G has a self-cleavage of 0.
C4A U27A gave a self-cleavage of 0.189.
Work on C4A U27C yielded a self-cleavage of 0.
C4A U37A showed a self-cleavage of 0.0332.
C4A U46A gave a self-cleavage of 0.151.
In the case of C4A U46C, the self-cleavage is reported as 0.111.
C4A U46G showed a self-cleavage of 0.0615.
Work on C4A U47G yielded a self-cleavage of 0.201.
In the case of C4A U69A, the self-cleavage is reported as 0.185.
Variant C4A U79C has a self-cleavage of 0.
For C4A U79G, the self-cleavage was 0.
In the case of C4G A8C, the self-cleavage is reported as 0.0898.
Work on C4G A42C yielded a self-cleavage of 0.
For C4G A43U, the self-cleavage was 0.0415.
Work on C4G A56C yielded a self-cleavage of 0.32.
C4G A56U gave a self-cleavage of 0.462.
Work on C4G A83C yielded a self-cleavage of 0.102.
C4G A87U showed a self-cleavage of 0.225.
C4G C7U showed a self-cleavage of 0.0234.
Variant C4G C19A has a self-cleavage of 0.
C4G C21G showed a self-cleavage of 0.
For C4G C30U, the self-cleavage was 0.0615.
For C4G C33U, the self-cleavage was 0.123.
For C4G C36G, the self-cleavage was 0.0268.
C4G C36U showed a self-cleavage of 0.0504.
C4G C41G showed a self-cleavage of 0.0437.
In the case of C4G C44U, the self-cleavage is reported as 0.141.
With C4G C57U the self-cleavage was 0.529.
Work on C4G C58A yielded a self-cleavage of 0.429.
C4G C61A showed a self-cleavage of 0.35.
Work on C4G C61G yielded a self-cleavage of 0.325.
Work on C4G C62A yielded a self-cleavage of 0.446.
In the case of C4G C62U, the self-cleavage is reported as 0.388.
C4G C64G showed a self-cleavage of 0.259.
With C4G C66G the self-cleavage was 0.727.
Work on C4G C84A yielded a self-cleavage of 0.225.
Variant C4G C86U has a self-cleavage of 0.44.
For C4G G5C, the self-cleavage was 0.0594.
Variant C4G G6C has a self-cleavage of 0.214.
C4G G10C showed a self-cleavage of 0.237.
Variant C4G G10U has a self-cleavage of 0.0779.
C4G G11U showed a self-cleavage of 0.0767.
